Source: publication PMC6450059

Experiments:
[1] = target: Suppressor of copper sensitivity protein C from Proteus mirabilis (PmScsC) (Proteus mirabilis); test: SAXS; native PmScsC, concentration series 0.1-10.0 mg ml^-1 in 10 mM HEPES pH 7.4, 150 mM NaCl, 283 K; linear combination of monomer and trimer scattering curves, global (common K t) and independent optimization; K t: monomers and trimer
[2] = target: PmScsCΔLinker (Proteus mirabilis); test: crystal structure; PmScsCΔLinker 40 mg ml^-1 in 10 mM HEPES pH 7.4, 150 mM NaCl; 0.1 M HEPES pH 7, 32%(v/v) Jeffamine M-600; 293 K; space group H32, one protomer in the asymmetric unit, trimer through crystallographic symmetry
[3] = target: PmScsCΔLinker (Proteus mirabilis); test: SAXS; PmScsCΔLinker, concentration series 0.1-10.0 mg ml^-1 in 10 mM HEPES pH 7.4, 150 mM NaCl, 283 K; linear combination of monomer, dimer and trimer scattering curves, global (common K d and K t) and independent optimization; K d: monomers and dimer; K t: monomer, dimer and trimer

For “Suppressor of copper sensitivity protein C from Proteus mirabilis (PmScsC) (enzyme)”, which K t (equilibrium constant for trimer formation, monomers and trimer) [1] is on record?
The K t (equilibrium constant for trimer formation, monomers and trimer) was 6.3e-18 M^2.

And the monomer fraction at 0.1 mg/ml (global optimization) [1]?
Its monomer fraction at 0.1 mg/ml (global optimization) is 0.01.

What about the monomer fraction at 0.1 mg/ml (independent optimization) [1] of the same substance?
Its monomer fraction at 0.1 mg/ml (independent optimization) is 0.21.

And the monomer fraction at 0.5 mg/ml (global optimization) [1]?
The monomer fraction at 0.5 mg/ml (global optimization) was 0.

And the monomer fraction at 0.5 mg/ml (independent optimization) [1]?
Its monomer fraction at 0.5 mg/ml (independent optimization) is 0.04.

What about the monomer fraction at 2.0 mg/ml (global optimization) [1] of the same substance?
Its monomer fraction at 2.0 mg/ml (global optimization) is 0.

What about the monomer fraction at 2.0 mg/ml (independent optimization) [1] of the same substance?
Its monomer fraction at 2.0 mg/ml (independent optimization) is 0.

And the monomer fraction at 5.0 mg/ml (global optimization) [1]?
Its monomer fraction at 5.0 mg/ml (global optimization) is 0.

And the monomer fraction at 5.0 mg/ml (independent optimization) [1]?
The monomer fraction at 5.0 mg/ml (independent optimization) was 0.

What about the monomer fraction at 10.0 mg/ml (global optimization) [1] of the same substance?
Its monomer fraction at 10.0 mg/ml (global optimization) is 0.

And the monomer fraction at 10.0 mg/ml (independent optimization) [1]?
The monomer fraction at 10.0 mg/ml (independent optimization) was 0.

What about the stoichiometry N [1] of the same substance?
The stoichiometry N was 3.

And the trimer fraction at 0.1 mg/ml (global optimization) [1]?
Its trimer fraction at 0.1 mg/ml (global optimization) is 0.99.

What about the trimer fraction at 0.1 mg/ml (independent optimization) [1] of the same substance?
Its trimer fraction at 0.1 mg/ml (independent optimization) is 0.79.

What about the trimer fraction at 0.5 mg/ml (global optimization) [1] of the same substance?
The trimer fraction at 0.5 mg/ml (global optimization) was 1.

And the trimer fraction at 0.5 mg/ml (independent optimization) [1]?
The trimer fraction at 0.5 mg/ml (independent optimization) was 0.96.

What about the trimer fraction at 2.0 mg/ml (global optimization) [1] of the same substance?
The trimer fraction at 2.0 mg/ml (global optimization) was 1.

And the trimer fraction at 2.0 mg/ml (independent optimization) [1]?
The trimer fraction at 2.0 mg/ml (independent optimization) was 1.

And the trimer fraction at 5.0 mg/ml (global optimization) [1]?
The trimer fraction at 5.0 mg/ml (global optimization) was 1.

What about the trimer fraction at 5.0 mg/ml (independent optimization) [1] of the same substance?
The trimer fraction at 5.0 mg/ml (independent optimization) was 1.

What about the trimer fraction at 10.0 mg/ml (global optimization) [1] of the same substance?
Its trimer fraction at 10.0 mg/ml (global optimization) is 1.

And the trimer fraction at 10.0 mg/ml (independent optimization) [1]?
The trimer fraction at 10.0 mg/ml (independent optimization) was 1.

PmScsCΔLinker (enzyme) was tested. Which stoichiometry N [2] did it give?
The stoichiometry N was 3.

And the K t (equilibrium constant for trimer formation, from monomer and dimer) [3]?
The K t (equilibrium constant for trimer formation, from monomer and dimer) was 730 µM.

What about the Kd [3] of the same substance?
The Kd was 210 µM.

What about the dimer fraction at 0.1 mg/ml (global optimization) [3] of the same substance?
The dimer fraction at 0.1 mg/ml (global optimization) was 0.03.

What about the dimer fraction at 0.1 mg/ml (independent optimization) [3] of the same substance?
Its dimer fraction at 0.1 mg/ml (independent optimization) is 0.

And the dimer fraction at 0.5 mg/ml (global optimization) [3]?
Its dimer fraction at 0.5 mg/ml (global optimization) is 0.12.

And the dimer fraction at 0.5 mg/ml (independent optimization) [3]?
The dimer fraction at 0.5 mg/ml (independent optimization) was 0.

What about the dimer fraction at 2.0 mg/ml (global optimization) [3] of the same substance?
The dimer fraction at 2.0 mg/ml (global optimization) was 0.27.

And the dimer fraction at 2.0 mg/ml (independent optimization) [3]?
Its dimer fraction at 2.0 mg/ml (independent optimization) is 0.33.

And the dimer fraction at 5.0 mg/ml (global optimization) [3]?
The dimer fraction at 5.0 mg/ml (global optimization) was 0.41.

What about the dimer fraction at 5.0 mg/ml (independent optimization) [3] of the same substance?
The dimer fraction at 5.0 mg/ml (independent optimization) was 0.37.

And the dimer fraction at 10.0 mg/ml (global optimization) [3]?
Its dimer fraction at 10.0 mg/ml (global optimization) is 0.48.

And the dimer fraction at 10.0 mg/ml (independent optimization) [3]?
The dimer fraction at 10.0 mg/ml (independent optimization) was 0.49.

What about the monomer fraction at 0.1 mg/ml (global optimization) [3] of the same substance?
Its monomer fraction at 0.1 mg/ml (global optimization) is 0.97.

What about the monomer fraction at 0.1 mg/ml (independent optimization) [3] of the same substance?
Its monomer fraction at 0.1 mg/ml (independent optimization) is 1.

What about the monomer fraction at 0.5 mg/ml (global optimization) [3] of the same substance?
The monomer fraction at 0.5 mg/ml (global optimization) was 0.88.

And the monomer fraction at 0.5 mg/ml (independent optimization) [3]?
The monomer fraction at 0.5 mg/ml (independent optimization) was 0.94.

What about the monomer fraction at 2.0 mg/ml (global optimization) [3] of the same substance?
Its monomer fraction at 2.0 mg/ml (global optimization) is 0.71.

And the monomer fraction at 2.0 mg/ml (independent optimization) [3]?
The monomer fraction at 2.0 mg/ml (independent optimization) was 0.67.

What about the monomer fraction at 5.0 mg/ml (global optimization) [3] of the same substance?
The monomer fraction at 5.0 mg/ml (global optimization) was 0.53.

And the monomer fraction at 5.0 mg/ml (independent optimization) [3]?
Its monomer fraction at 5.0 mg/ml (independent optimization) is 0.55.

And the monomer fraction at 10.0 mg/ml (global optimization) [3]?
Its monomer fraction at 10.0 mg/ml (global optimization) is 0.4.

What about the monomer fraction at 10.0 mg/ml (independent optimization) [3] of the same substance?
The monomer fraction at 10.0 mg/ml (independent optimization) was 0.37.

And the trimer fraction at 0.1 mg/ml (global optimization) [3]?
The trimer fraction at 0.1 mg/ml (global optimization) was 0.

And the trimer fraction at 0.1 mg/ml (independent optimization) [3]?
Its trimer fraction at 0.1 mg/ml (independent optimization) is 0.

And the trimer fraction at 0.5 mg/ml (global optimization) [3]?
Its trimer fraction at 0.5 mg/ml (global optimization) is 0.

And the trimer fraction at 0.5 mg/ml (independent optimization) [3]?
Its trimer fraction at 0.5 mg/ml (independent optimization) is 0.06.

And the trimer fraction at 2.0 mg/ml (global optimization) [3]?
Its trimer fraction at 2.0 mg/ml (global optimization) is 0.02.

And the trimer fraction at 2.0 mg/ml (independent optimization) [3]?
Its trimer fraction at 2.0 mg/ml (independent optimization) is 0.

And the trimer fraction at 5.0 mg/ml (global optimization) [3]?
Its trimer fraction at 5.0 mg/ml (global optimization) is 0.07.

And the trimer fraction at 5.0 mg/ml (independent optimization) [3]?
The trimer fraction at 5.0 mg/ml (independent optimization) was 0.08.

What about the trimer fraction at 10.0 mg/ml (global optimization) [3] of the same substance?
Its trimer fraction at 10.0 mg/ml (global optimization) is 0.12.

What about the trimer fraction at 10.0 mg/ml (independent optimization) [3] of the same substance?
Its trimer fraction at 10.0 mg/ml (independent optimization) is 0.1.
